Earlier results in article PMC4489423.
Like-named read-outs stand apart in the source and are kept apart here.

How the values were obtained:
[1] = molecular target: IL-10R2 ECD (Homo sapiens) (UniProt Q08334)
[2] = molecular target: IL-10R1 ECD (Homo sapiens) (UniProt Q13651); experiment: SPR
[3] = molecular target: IL-10R2 ECD (Homo sapiens) (UniProt Q08334); experiment: SPR

Chain of IL-10 (P22301 19-178): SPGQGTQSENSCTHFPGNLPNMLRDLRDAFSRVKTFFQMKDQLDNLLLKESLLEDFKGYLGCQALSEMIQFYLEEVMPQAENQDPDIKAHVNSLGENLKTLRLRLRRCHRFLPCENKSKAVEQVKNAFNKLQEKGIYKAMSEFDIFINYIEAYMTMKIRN
Chain of IL-10R2 ECD (Homo sapiens) (Q08334 20-220): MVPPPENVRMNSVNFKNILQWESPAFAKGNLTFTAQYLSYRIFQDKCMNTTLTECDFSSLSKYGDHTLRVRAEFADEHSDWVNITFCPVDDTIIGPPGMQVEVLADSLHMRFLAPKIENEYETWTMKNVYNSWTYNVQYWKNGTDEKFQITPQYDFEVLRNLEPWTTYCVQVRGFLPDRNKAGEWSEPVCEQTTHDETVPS
Chain of IL-10R1 ECD (Homo sapiens) (Q13651 22-235): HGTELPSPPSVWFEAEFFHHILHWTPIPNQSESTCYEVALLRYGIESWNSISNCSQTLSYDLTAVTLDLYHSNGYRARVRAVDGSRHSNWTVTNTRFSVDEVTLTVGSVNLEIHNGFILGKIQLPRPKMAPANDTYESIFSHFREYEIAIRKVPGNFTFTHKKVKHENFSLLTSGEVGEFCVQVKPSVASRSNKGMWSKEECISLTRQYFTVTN
Chain of IL-10/IL-10R1 complex (P22301 19-178): as the sequence (P22301 19-178) above
Chain of IL-10/IL-10R1 complex (Q13651 22-235, further chain): as the sequence (Q13651 22-235) above

IL-10/IL-10R1 complex (from UniProt P22301)
Kd [1]: 234 µM

IL-10 (from UniProt P22301)
Kd [2]: 0.00024 µM | Kd [3]: 3000 µM
